In patent US10500249B2, “Compositions and methods for preventing or treating diseases, conditions, or processes characterized by aberrant fibroblast proliferation and extracellular matrix deposition” (MOERAE MATRIX, INC., priority 2014, dated 2019):

What was measured:
Experiment in all cases: Kinase Profiling Assay
Assay type in all cases: biochemical
Conditions in all cases: 100 μM
CK2 (h) = biological target: T1, CK2 (h) (Homo sapiens, UniProt P68400)
T1 construct: purchased Millipore
Procedure, shortened: (§1)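 Kinase inhibition by MK2 inhibitory peptides was profiled radiometrically, with substrate phosphorylation from labeled ATP read by scintillation after capture on a charged filter. Values are relative to 100% activity and measured in duplicate.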

EphA2 (h) = biological target: T2, EphA2 (h) (Homo sapiens, UniProt P29317)
T2 construct: purchased Millipore
Procedure, shortened: as §1

Fes (h) = Fes (h) (Homo sapiens, UniProt P07332)
Chain of Fes (h) (P07332 whole entry): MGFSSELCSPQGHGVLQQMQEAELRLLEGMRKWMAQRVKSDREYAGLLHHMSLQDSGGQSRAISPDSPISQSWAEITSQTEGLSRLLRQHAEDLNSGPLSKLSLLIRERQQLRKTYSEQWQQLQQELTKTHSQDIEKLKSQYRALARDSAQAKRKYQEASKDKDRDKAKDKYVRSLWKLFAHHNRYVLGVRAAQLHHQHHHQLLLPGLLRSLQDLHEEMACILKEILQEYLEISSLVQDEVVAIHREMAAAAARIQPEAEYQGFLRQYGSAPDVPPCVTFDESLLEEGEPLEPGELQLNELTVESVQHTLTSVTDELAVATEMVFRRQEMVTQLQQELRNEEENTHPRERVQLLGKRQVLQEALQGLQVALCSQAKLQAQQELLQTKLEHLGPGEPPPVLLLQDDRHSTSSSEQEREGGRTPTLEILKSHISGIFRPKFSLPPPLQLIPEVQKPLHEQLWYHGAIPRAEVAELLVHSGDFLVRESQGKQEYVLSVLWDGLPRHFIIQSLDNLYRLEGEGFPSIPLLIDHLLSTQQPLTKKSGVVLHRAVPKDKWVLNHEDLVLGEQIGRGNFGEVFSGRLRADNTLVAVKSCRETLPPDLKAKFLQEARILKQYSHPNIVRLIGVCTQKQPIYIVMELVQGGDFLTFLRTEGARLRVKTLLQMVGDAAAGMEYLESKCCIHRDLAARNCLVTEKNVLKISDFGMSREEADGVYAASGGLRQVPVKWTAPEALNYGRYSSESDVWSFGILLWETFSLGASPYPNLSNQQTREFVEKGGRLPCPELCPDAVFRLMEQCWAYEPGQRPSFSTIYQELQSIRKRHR
Procedure, shortened: as §1

Fyn (h) = biological target: T3, Fyn (h) (Homo sapiens, UniProt P06241)
T3 construct: purchased Millipore
T3 sequence (P06241 whole entry): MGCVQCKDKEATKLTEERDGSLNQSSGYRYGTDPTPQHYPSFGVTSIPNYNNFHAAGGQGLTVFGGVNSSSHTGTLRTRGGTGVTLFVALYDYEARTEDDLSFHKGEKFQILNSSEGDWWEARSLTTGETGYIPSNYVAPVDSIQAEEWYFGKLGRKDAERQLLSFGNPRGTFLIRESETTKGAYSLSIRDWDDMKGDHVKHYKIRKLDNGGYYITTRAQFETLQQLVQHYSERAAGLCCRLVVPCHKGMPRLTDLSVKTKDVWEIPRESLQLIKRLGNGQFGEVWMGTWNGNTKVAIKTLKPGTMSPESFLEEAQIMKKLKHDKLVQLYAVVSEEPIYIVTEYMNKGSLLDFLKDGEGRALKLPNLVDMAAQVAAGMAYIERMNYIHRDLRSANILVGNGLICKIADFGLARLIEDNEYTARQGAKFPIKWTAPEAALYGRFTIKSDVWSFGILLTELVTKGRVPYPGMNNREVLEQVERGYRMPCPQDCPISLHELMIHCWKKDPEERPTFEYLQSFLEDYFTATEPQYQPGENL
Procedure, shortened: as §1

Itk (h) = biological target: T4, Itk (h) (Homo sapiens, UniProt Q08881)
T4 construct: purchased Millipore
T4 sequence (Q08881 1-620): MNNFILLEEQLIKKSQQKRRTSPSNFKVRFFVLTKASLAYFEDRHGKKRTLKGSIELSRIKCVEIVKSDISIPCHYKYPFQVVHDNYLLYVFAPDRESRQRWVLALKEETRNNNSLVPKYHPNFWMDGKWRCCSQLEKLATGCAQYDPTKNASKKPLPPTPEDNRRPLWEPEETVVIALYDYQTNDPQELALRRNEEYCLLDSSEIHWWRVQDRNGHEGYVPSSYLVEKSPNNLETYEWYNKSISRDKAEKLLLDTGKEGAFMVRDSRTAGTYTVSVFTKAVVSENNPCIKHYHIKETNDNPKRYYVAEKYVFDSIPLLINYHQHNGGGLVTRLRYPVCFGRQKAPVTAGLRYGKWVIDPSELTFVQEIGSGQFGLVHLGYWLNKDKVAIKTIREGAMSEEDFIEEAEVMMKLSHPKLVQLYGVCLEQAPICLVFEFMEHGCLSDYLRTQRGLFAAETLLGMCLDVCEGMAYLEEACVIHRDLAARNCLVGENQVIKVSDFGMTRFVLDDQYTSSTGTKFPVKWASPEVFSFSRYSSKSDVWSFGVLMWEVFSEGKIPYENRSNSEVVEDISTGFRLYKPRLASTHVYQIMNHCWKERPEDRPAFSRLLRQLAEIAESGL
Procedure, shortened: as §1

PKCζ (h) = biological target: T5, PKCζ (h) (Homo sapiens, UniProt Q05513)
T5 sequence (Q05513 1-592): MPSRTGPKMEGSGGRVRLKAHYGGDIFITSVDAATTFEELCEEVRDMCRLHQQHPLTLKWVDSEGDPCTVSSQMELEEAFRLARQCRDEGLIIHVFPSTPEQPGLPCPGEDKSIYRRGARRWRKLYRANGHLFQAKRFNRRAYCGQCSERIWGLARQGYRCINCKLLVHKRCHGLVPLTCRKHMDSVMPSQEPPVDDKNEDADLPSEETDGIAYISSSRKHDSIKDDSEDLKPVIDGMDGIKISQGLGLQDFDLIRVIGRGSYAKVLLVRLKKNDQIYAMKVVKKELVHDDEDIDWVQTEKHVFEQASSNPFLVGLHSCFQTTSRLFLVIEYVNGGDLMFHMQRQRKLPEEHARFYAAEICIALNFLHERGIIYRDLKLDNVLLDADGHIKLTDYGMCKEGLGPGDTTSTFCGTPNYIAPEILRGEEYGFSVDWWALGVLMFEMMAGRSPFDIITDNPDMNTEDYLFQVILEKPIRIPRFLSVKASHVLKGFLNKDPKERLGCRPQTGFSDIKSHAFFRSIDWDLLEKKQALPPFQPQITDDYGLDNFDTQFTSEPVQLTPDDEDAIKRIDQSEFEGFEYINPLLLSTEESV
Procedure, shortened: as §1

PKG1β (h) = biological target: T6, PKG1β (h) (Homo sapiens, UniProt Q13976)
T6 sequence (Q13976 1-686 isoform Q13976-2): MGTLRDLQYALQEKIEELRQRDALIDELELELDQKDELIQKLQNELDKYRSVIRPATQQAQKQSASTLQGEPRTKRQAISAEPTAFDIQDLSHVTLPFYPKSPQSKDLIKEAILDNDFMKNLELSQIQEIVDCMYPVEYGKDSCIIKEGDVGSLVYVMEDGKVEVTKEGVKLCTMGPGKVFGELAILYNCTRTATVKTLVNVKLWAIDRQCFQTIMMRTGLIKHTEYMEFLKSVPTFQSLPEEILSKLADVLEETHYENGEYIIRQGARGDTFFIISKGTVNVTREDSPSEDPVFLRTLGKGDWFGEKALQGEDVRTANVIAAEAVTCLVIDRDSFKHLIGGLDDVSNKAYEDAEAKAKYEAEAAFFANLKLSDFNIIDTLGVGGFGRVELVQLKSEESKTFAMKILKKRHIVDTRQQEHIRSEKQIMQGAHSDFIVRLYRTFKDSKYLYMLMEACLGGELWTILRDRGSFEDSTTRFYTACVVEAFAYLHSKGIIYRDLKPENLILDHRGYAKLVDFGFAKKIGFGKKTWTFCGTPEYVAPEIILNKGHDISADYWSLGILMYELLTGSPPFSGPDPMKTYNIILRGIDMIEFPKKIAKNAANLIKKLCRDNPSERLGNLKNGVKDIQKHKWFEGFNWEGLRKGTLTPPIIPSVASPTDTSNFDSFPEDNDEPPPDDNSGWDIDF
Procedure, shortened: as §1

PrKX (h) = biological target: T7, PrKX (h) (Homo sapiens, UniProt P51817)
T7 sequence (P51817 1-358): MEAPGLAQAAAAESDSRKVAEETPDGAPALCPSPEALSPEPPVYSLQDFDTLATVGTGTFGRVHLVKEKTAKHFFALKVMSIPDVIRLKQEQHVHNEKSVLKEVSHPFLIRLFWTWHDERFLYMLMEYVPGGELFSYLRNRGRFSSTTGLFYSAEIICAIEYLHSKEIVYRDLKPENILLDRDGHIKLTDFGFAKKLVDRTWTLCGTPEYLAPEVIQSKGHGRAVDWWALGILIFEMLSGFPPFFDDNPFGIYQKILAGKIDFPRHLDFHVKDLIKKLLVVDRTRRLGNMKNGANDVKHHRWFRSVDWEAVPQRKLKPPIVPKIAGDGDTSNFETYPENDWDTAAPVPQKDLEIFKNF
Procedure, shortened: as §1

SRPK2 (h) = SRPK2 (h) (Homo sapiens, UniProt P78362)
Chain of SRPK2 (h) (P78362 whole entry): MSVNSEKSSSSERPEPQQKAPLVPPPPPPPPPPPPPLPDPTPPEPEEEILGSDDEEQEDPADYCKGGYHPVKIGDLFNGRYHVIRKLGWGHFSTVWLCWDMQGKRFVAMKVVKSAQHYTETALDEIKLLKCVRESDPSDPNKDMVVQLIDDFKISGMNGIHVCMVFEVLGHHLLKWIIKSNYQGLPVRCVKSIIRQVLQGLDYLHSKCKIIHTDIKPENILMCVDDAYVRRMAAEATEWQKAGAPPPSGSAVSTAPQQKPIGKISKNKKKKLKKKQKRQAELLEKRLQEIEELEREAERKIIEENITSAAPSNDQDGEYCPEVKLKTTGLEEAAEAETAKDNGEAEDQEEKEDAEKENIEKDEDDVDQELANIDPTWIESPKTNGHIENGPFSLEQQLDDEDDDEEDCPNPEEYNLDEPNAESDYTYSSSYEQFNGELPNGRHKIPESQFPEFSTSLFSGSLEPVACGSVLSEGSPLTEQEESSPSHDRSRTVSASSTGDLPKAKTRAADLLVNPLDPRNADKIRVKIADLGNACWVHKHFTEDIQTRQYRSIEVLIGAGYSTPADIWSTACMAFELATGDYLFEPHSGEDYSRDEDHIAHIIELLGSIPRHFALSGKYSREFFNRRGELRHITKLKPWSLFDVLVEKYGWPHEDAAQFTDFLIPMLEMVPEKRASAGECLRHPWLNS
Procedure, shortened: as §1

T1 sequence (P68400 whole entry): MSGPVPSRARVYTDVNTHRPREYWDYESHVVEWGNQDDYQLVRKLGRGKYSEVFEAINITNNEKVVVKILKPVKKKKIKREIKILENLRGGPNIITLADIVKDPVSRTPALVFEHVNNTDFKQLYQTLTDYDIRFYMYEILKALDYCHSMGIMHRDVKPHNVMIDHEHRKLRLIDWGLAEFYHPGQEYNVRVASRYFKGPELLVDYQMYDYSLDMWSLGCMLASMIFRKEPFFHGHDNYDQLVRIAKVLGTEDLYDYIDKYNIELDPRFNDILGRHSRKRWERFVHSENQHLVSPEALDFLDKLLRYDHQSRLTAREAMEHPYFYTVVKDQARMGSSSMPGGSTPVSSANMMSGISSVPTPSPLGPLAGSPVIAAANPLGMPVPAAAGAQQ
T1 sequence (P67870 whole entry partner): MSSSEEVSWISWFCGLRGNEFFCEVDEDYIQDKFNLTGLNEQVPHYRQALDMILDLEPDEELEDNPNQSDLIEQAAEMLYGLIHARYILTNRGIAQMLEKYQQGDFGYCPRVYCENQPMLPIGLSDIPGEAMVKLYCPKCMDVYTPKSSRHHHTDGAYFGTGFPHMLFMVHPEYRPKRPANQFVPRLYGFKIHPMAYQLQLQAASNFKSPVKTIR

Sequence | % activity (CK2 (h)) | % activity (EphA2 (h)) | % activity (Fes (h)) | % activity (Fyn (h)) | % activity (Itk (h)) | % activity (PKCζ (h)) | % activity (PKG1β (h)) | % activity (PrKX (h)) | % activity (SRPK2 (h))
FAKLAARLYRKALARQLGVAA [MMI-0300] | 90% | 31% | 20% | 74% | 77% | 81% | 50% | 61% | 
HRRIKAWLKKIKALARQLGVAA (Mammalian) [MMI-0500] | 93% |  | 23% | 83% | 7% | 7% | 24% | 57% | 80%
KAFAKLAARLYRKALARQLGVAA [MMI-0400] | 101% | 17% | 16% | 54% | 63% | 75% | 53% | 76% | 97%
YARAAARQARAKALNRQLGVA (Mammalian) [MMI-0200] | 83% | 95% | 74% | 75% | 98% | 98% | 57% |  | 100%
